Like-named read-outs stand apart in the source and are kept apart here.
Experiments:
cytokines and chemokines = experiment: Multiplex analysis of inflammatory mediators in BALF and serum; format: in vivo, DBA/2J mice
IL-6, TNFα, KC, MCP-1 = format: in vivo
AECII [1] = experiment: Flow cytometry of dispersed lung cells (pro SP-C, Ki67, IAV-NP) after in vivo treatment; parameters: species or system DBA/2J mice
AECII [2] = format: cell-based, mice

B1: KGF: keratinocyte growth factor, a potent pulmonary epithelial mitogen; cognate receptor FGFR2 (protein, UniProt P21781 32-194, looked up)
Fibroblast growth factor 7: CNDMTPEQMATNVNCSSPERHTRSYDYMEGGDIRVRRLFCRTQWYLRIDKRGKVKGTQEMKNNYNIMEIRTVAVGIVAIKGVESEFYLAMNKEGKLYAKKECNEDCNFKELILENHYNTYASAKWTHNGGEMFVALNQKGIPVRGKKTKKEQKTAHFLPMAIT
For B1, which “BAL IP10, MCP-5, TNFα, MIG, IL-6, MCP-1, G-CSF, M-CSF, IFNγ responses relative to PBS/IAV” value (cytokines and chemokines; BALF, 72 h after IAV with 5 mg/kg KGF i.t.) is on record?
Its value is “modestly augmented”.

What about the “serum inflammatory response to IAV (especially IP10, TNFα, MCP-1, IFNγ)” value (cytokines and chemokines; serum, IAV with 5 mg/kg KGF i.t.) of the same molecule?
The value was “augmented the inflammatory response”.

What about the “TNFα increase, KGF alone vs naive controls” value (IL-6, TNFα, KC, MCP-1; KGF treatment alone, 48 and 72 h postchallenge) of the same molecule?
The value was “two- to threefold increases”.

What about the “cytokine responses, KGF alone (other than TNFα)” value (IL-6, TNFα, KC, MCP-1; KGF treatment alone, no IAV, any point) of the same molecule?
Its value is “no effect”.

What about the “enhancement of IAV-induced IL-6, TNFα, KC, MCP-1 levels” value (IL-6, TNFα, KC, MCP-1; whole-lung homogenates, 48 and 72 h, KGF coadministration with IAV) of the same molecule?
The value was 10-50%.

And the “fold increase in percentage of AECII proliferating vs PBS” value (AECII [1]; 48 h after i.t. KGF 5 mg/kg)?
The value was “more than sevenfold”.

And the “percentage of AECII proliferating based on Ki67 staining” value (AECII [1]; 48 h after i.t. KGF 5 mg/kg, PBS-only mice 2%)?
The value was 14%.

What about the “percentage of AECII infected (IAV-NP), time course” value (AECII [1]; KGF 24, 48 or 120 h before 50,000 particles i.t. IAV, peak) of the same molecule?
Its value is “peaked in dispersed lung cells from mice that had been pretreated with KGF 48 h before infection”.

And the “mean channel fluorescence of IAV-NP (viral burden per cell), time course” value (AECII [1]; KGF 24, 48 or 120 h before IAV, peak)?
Its value is “peaking in cells harvested at 48 h after KGF”.

What about the “percentage of AECII infected (IAV-NP)” value (AECII [1]; KGF 120 h before inoculum) of the same molecule?
Its value is “remained near PBS control levels”.

What about the “mean channel fluorescence of IAV-NP (viral burden per cell)” value (AECII [1]; mouse, in vivo) of the same molecule?
The value was “remaining close to PBS control levels”.

And the “percentage of AECII infected vs PBS control mice” value (AECII [1]; mouse, in vivo)?
The value was “significantly greater”.

And the “percentage of AECII proliferating (Ki67)” value (AECII [1]; mouse, in vivo)?
Its value is “remaining similar to PBS control levels”.

What about the “percentage of AECII proliferating (Ki67), time course” value (AECII [1]; mouse, in vivo) of the same molecule?
The value was “peaking in cells isolated from mice that had been dosed with KGF 48 h before PBS challenge”.

What about the “MCF per cell for IAV-NP” value (AECII [2]) of the same molecule?
Its value is “returning to baseline”.

And the “mean fluorescence intensity of IAV-NP staining, Ki67 high vs Ki67 low” value (AECII [2])?
Its value is “greater in the Ki67 high (proliferating) than the Ki67 low (nonproliferating) population”.

And the “peak in expression of viral protein M1 (Western blot)” value (AECII [2])?
Its value is “occurred in AECII that were isolated 48 h after in vivo KGF challenge”.

And the “percentage of AECII infected after ex vivo IAV incubation” value (AECII [2])?
Its value is “remained near baseline levels”.

What about the “percentage of AECII infected after ex vivo IAV incubation, time course” value (AECII [2]) of the same molecule?
Its value is “highest in cells harvested 48 h after in vivo KGF treatment”.

And the “percentage of AECII proliferating (Ki67)” value (AECII [2])?
Its value is “returned to near baseline”.

And the “percentage of AECII proliferating (Ki67), time course” value (AECII [2])?
The value was “peaked at 48 h”.

And the “MCF per cell for IAV-NP, time course” value (AECII [2]; ex vivo IAV 18 h, peak)?
Its value is “peaking in cells harvested at 48 h post KGF”.

Source: patent US20200230115A1, “METHODS OF TREATING INFLUENZA-ASSOCIATED VIRAL PNEUMONIA” (priority 2017, published 2020)
